Experimental data: patent US20080199851A1
Where “and” joins values, the source holds several entries; their conditions need not be identical. Equal values may be shown once.

Tests used:
[1] = target: Inactivated influenza A virus Texas 1/77 (H3N2) (Influenza A virus Texas 1/77 (H3N2)); assay: lateral-flow sandwich, 7304 line + M4090913-Eu, 0.1 HA units/test, against 0 HA
[2] = target: Inactivated influenza A virus Texas 1/77 (H3N2) (Influenza A virus Texas 1/77 (H3N2)); assay: lateral-flow sandwich, 7304 line + M4090913-Eu, 0.04 HA units/test
[3] = target: Inactivated influenza A virus Texas 1/77 (H3N2) (Influenza A virus Texas 1/77 (H3N2)); assay: lateral-flow sandwich, 7304 line + M4090913-Eu, 0.04 HA units/test, against 0 HA
[4] = target: Inactivated influenza A virus Texas 1/77 (H3N2) (Influenza A virus Texas 1/77 (H3N2)); assay: lateral-flow sandwich, 7304 line + M4090913-Eu, 1 HA unit/test, against 0 HA
[5] = target: Inactivated influenza A virus Texas 1/77 (H3N2) (Influenza A virus Texas 1/77 (H3N2)); assay: lateral-flow sandwich, 7304 line + M4090913-Eu, 0.01 HA units/test, against 0 HA
[6] = target: Inactivated influenza A virus Texas 1/77 (H3N2) (Influenza A virus Texas 1/77 (H3N2)); assay: lateral-flow sandwich, 7304 line + M4090913-gold, 1.64 HA/test
[7] = target: Inactivated influenza A virus Texas 1/77 (H3N2) (Influenza A virus Texas 1/77 (H3N2)); assay: lateral-flow sandwich, 7304 line + M4090913-Eu, 0.01 HA units/test
[8] = target: Inactivated influenza B virus Hong Kong 5/72 (Influenza B virus Hong Kong 5/72); assay: lateral-flow sandwich, A line: 7304 striped + M4090913-Eu
[9] = target: Inactivated influenza A virus Texas 1/77 (H3N2) (Influenza A virus Texas 1/77 (H3N2)); assay: lateral-flow sandwich, 7304 line + M4090913-Eu, 0.02 HA units/test
[10] = target: Inactivated influenza A virus Texas 1/77 (H3N2) (Influenza A virus Texas 1/77 (H3N2)); assay: lateral-flow sandwich, 7304 line + M4090913-gold, 0.105 HA/test
[11] = target: Inactivated influenza A virus Texas 1/77 (H3N2) (Influenza A virus Texas 1/77 (H3N2)); assay: lateral-flow sandwich, 7304 line + M4090913-gold, 0.82 HA/test
[12] = target: Inactivated influenza A virus Texas 1/77 (H3N2) (Influenza A virus Texas 1/77 (H3N2)); assay: lateral-flow sandwich, 7304 line + M4090913-Eu, 0.1 HA units/test
[13] = target: Inactivated influenza A virus Texas 1/77 (H3N2) (Influenza A virus Texas 1/77 (H3N2)); assay: lateral-flow sandwich, 7304 line + M4090913-Eu, 0.041 HA units
[14] = target: Inactivated influenza A virus Texas 1/77 (H3N2) (Influenza A virus Texas 1/77 (H3N2)); assay: lateral-flow sandwich, 7304 line + M4090913-Eu, 1 HA unit/test
[15] = target: Inactivated influenza A virus Texas 1/77 (H3N2) (Influenza A virus Texas 1/77 (H3N2)); assay: lateral-flow sandwich, 7304 line + M4090913-Eu, 0.328 HA units
[16] = target: Inactivated influenza A virus Texas 1/77 (H3N2) (Influenza A virus Texas 1/77 (H3N2)); assay: lateral-flow sandwich, 7304 line + M4090913-gold, 0.21 HA/test
[17] = target: Inactivated influenza A virus Texas 1/77 (H3N2) (Influenza A virus Texas 1/77 (H3N2)); assay: lateral-flow sandwich, 7304 line + M4090913-Eu, 0.021 HA units
[18] = target: Inactivated influenza A virus Texas 1/77 (H3N2) (Influenza A virus Texas 1/77 (H3N2)); assay: lateral-flow sandwich, 7304 line + M4090913-Eu, 0.123 HA units
[19] = target: Inactivated influenza A virus Texas 1/77 (H3N2) (Influenza A virus Texas 1/77 (H3N2)); assay: lateral-flow sandwich, 7304 line + M4090913-Eu, 0.02 HA units/test, against 0 HA
[20] = target: Inactivated influenza A virus Texas 1/77 (H3N2) (Influenza A virus Texas 1/77 (H3N2)); assay: lateral-flow sandwich, 7304 line + M4090913-gold, 0.41 HA/test
[21] = target: Inactivated influenza A virus Texas 1/77 (H3N2) (Influenza A virus Texas 1/77 (H3N2)); assay: lateral-flow sandwich, 7304 line + M4090913-Eu, 0.164 HA units
[22] = target: Inactivated influenza A virus Texas 1/77 (H3N2) (Influenza A virus Texas 1/77 (H3N2)); assay: lateral-flow sandwich, 7304 line + M4090913-Eu, 0.021 HA unit
[23] = target: Inactivated influenza A virus Texas 1/77 (H3N2) (Influenza A virus Texas 1/77 (H3N2)); assay: lateral-flow sandwich, 7304 line + M4090913-Eu, 0.082 HA units
[24] = target: Inactivated influenza B virus Hong Kong 5/72 (Influenza B virus Hong Kong 5/72); assay: lateral-flow sandwich, 9901 line + 2/3-Eu, 0.0328 HA units
[25] = target: Inactivated influenza B virus Hong Kong 5/72 (Influenza B virus Hong Kong 5/72); assay: lateral-flow sandwich, 9901 line + 2/3-Eu, 0.0082 HA units
[26] = target: Inactivated influenza B virus Hong Kong 5/72 (Influenza B virus Hong Kong 5/72); assay: lateral-flow sandwich, 9901 line + 2/3-Eu, 0.0021 HA units
[27] = target: Inactivated influenza B virus Hong Kong 5/72 (Influenza B virus Hong Kong 5/72); assay: lateral-flow sandwich, 9901 line + 2/3-Eu, 0.0123 HA units
[28] = target: Inactivated influenza B virus Hong Kong 5/72 (Influenza B virus Hong Kong 5/72); assay: lateral-flow sandwich, 9901 line + 2/3-Eu, 0.0041 HA units
[29] = target: Inactivated influenza B virus Hong Kong 5/72 (Influenza B virus Hong Kong 5/72)
[30] = target: Inactivated influenza B virus Hong Kong 5/72 (Influenza B virus Hong Kong 5/72); assay: lateral-flow sandwich, 9901 line + 2/3-Eu, 0.0164 HA units
[31] = target: Inactivated influenza B virus Hong Kong 5/72 (Influenza B virus Hong Kong 5/72); assay: lateral-flow sandwich, M2110171 line + 2/3-Eu, 0.016 HA units/test, against 0 HA
[32] = target: Inactivated influenza B virus Hong Kong 5/72 (Influenza B virus Hong Kong 5/72); assay: lateral-flow sandwich, M2110171 line + 2/3-Eu, 0.0082 HA units
[33] = target: Inactivated influenza B virus Hong Kong 5/72 (Influenza B virus Hong Kong 5/72); assay: lateral-flow sandwich, M2110171 line + 2/3-Eu, 0.0328 HA units
[34] = target: Inactivated influenza B virus Hong Kong 5/72 (Influenza B virus Hong Kong 5/72); assay: lateral-flow sandwich, M2110171 line + 2/3-Eu, 0.0041 HA units
[35] = target: Inactivated influenza B virus Hong Kong 5/72 (Influenza B virus Hong Kong 5/72); assay: lateral-flow sandwich, M2110171 line + 2/3-Eu, 0.004 HA units/test
[36] = target: Inactivated influenza B virus Hong Kong 5/72 (Influenza B virus Hong Kong 5/72); assay: lateral-flow sandwich, M2110171 line + 2/3-gold, 0.164 HA/test
[37] = target: Inactivated influenza B virus Hong Kong 5/72 (Influenza B virus Hong Kong 5/72); assay: lateral-flow sandwich, M2110171 line + 2/3-Eu, 0.004 HA units/test, against 0 HA
[38] = target: Inactivated influenza B virus Hong Kong 5/72 (Influenza B virus Hong Kong 5/72); assay: lateral-flow sandwich, M2110171 line + 2/3-gold, 0.041 HA/test
[39] = target: Inactivated influenza B virus Hong Kong 5/72 (Influenza B virus Hong Kong 5/72); assay: lateral-flow sandwich, M2110171 line + 2/3-Eu, 0.0164 HA units
[40] = target: Inactivated influenza B virus Hong Kong 5/72 (Influenza B virus Hong Kong 5/72); assay: lateral-flow sandwich, M2110171 line + 2/3-Eu, 0.032 HA units/test, against 0 HA
[41] = target: Inactivated influenza B virus Hong Kong 5/72 (Influenza B virus Hong Kong 5/72); assay: lateral-flow sandwich, M2110171 line + 2/3-Eu, 0.002 HA units/test, against 0 HA
[42] = target: Inactivated influenza B virus Hong Kong 5/72 (Influenza B virus Hong Kong 5/72); assay: lateral-flow sandwich, M2110171 line + 2/3-gold, 0.082 HA/test
[43] = target: Inactivated influenza B virus Hong Kong 5/72 (Influenza B virus Hong Kong 5/72); assay: lateral-flow sandwich, M2110171 line + 2/3-Eu, 0.0021 HA units
[44] = target: Inactivated influenza B virus Hong Kong 5/72 (Influenza B virus Hong Kong 5/72); assay: lateral-flow sandwich, M2110171 line + 2/3-Eu, 0.016 HA units/test
[45] = target: Inactivated influenza B virus Hong Kong 5/72 (Influenza B virus Hong Kong 5/72); assay: lateral-flow sandwich, B line: M2110171 striped + 2/3-Eu
[46] = target: Inactivated influenza B virus Hong Kong 5/72 (Influenza B virus Hong Kong 5/72); assay: lateral-flow sandwich, M2110171 line + 2/3-Eu, 0.002 HA units/test
[47] = target: Inactivated influenza B virus Hong Kong 5/72 (Influenza B virus Hong Kong 5/72); assay: lateral-flow sandwich, M2110171 line + 2/3-gold, 0.021 HA/test
[48] = target: Inactivated influenza B virus Hong Kong 5/72 (Influenza B virus Hong Kong 5/72); assay: lateral-flow sandwich, M2110171 line + 2/3-Eu, 0.0123 HA units
[49] = target: Inactivated influenza B virus Hong Kong 5/72 (Influenza B virus Hong Kong 5/72); assay: lateral-flow sandwich, M2110171 line + 2/3-Eu, 0.008 HA units/test
[50] = target: Inactivated influenza B virus Hong Kong 5/72 (Influenza B virus Hong Kong 5/72); assay: lateral-flow sandwich, M2110171 line + 2/3-Eu, 0.032 HA units/test
[51] = target: Inactivated influenza B virus Hong Kong 5/72 (Influenza B virus Hong Kong 5/72); assay: lateral-flow sandwich, M2110171 line + 2/3-Eu, 0.008 HA units/test, against 0 HA

Substance: anti-Flu A Medix 7304 antibody
- S/N [1]: 4.5
- fluorescence signal [2]: 1420 and 1440
- fluorescence signal (AVG) [2]: 1430
- S/N [3]: 2.6
- S/N [4]: 37.4
- S/N [5]: 1.4
- Peak Intensity [6]: 26.4 and 22.5
- Peak Intensity(avg) [6]: 24.5
- fluorescence signal [7]: 794 and 776
- fluorescence signal (AVG) [7]: 785
- Signal/noise of test line [8]: 4.8
- fluorescence signal [9]: 936 and 1040
- fluorescence signal (AVG) [9]: 987
- Peak Intensity [10]: 2.2 and 3.3
- Peak Intensity(avg) [10]: 2.8
- Peak Intensity [11]: 14.8 and 13.5
- Peak Intensity(avg) [11]: 14.1
- fluorescence signal [12]: 2550 and 2400
- fluorescence signal (AVG) [12]: 2470
- fluorescence intensity (AVG) [13]: 1600
- fluorescence signal [14]: 21100 and 20000
- fluorescence signal (AVG) [14]: 20500
- fluorescence intensity (AVG) [15]: 8690
- Peak Intensity [16]: 4.8 and 8.6
- Peak Intensity(avg) [16]: 6.7
- fluorescence intensity (AVG) [17]: 1270
- fluorescence intensity (AVG) [18]: 3730
- S/N [19]: 1.8
- Peak Intensity [20]: 13.2 and 9.1
- Peak Intensity(avg) [20]: 11.2
- fluorescence intensity (AVG) [21]: 4080
- Signal/noise (S/N) ratio [22]: 2.03
- fluorescence intensity (AVG) [23]: 2280

Substance: anti-Flu B Medix 9901 antibody
- fluorescence intensity (AVG) [24]: 9990
- fluorescence intensity (AVG) [25]: 2480
- fluorescence intensity (AVG) [26]: 1490
- fluorescence intensity (AVG) [27]: 2710
- fluorescence intensity (AVG) [28]: 1580
- S/N ratio [29]: 4.96
- fluorescence intensity (AVG) [30]: 5440

Substance: Anti-Flu B nucleoprotein M2110171 (Fitzgerald) (antibody)
- signal/noise [31]: 19.8
- fluorescence intensity (AVG) [32]: 3590
- fluorescence intensity (AVG) [33]: 12800
- fluorescence intensity (AVG) [34]: 2670
- Net peak height [35]: 884 and 896
- Net peak height (AVG) [35]: 890
- Peak Intensity [36]: 14.4 and 13.3
- Peak Intensity(avg) [36]: 13.8
- signal/noise [37]: 6
- Peak Intensity [38]: 4.8 and 4.6
- Peak Intensity(avg) [38]: 4.67
- fluorescence intensity (AVG) [39]: 7130
- signal/noise [40]: 47.6
- signal/noise [41]: 3.5
- Peak Intensity [42]: 7.3 and 8.2
- Peak Intensity(avg) [42]: 7.76
- fluorescence intensity (AVG) [43]: 1380
- Net peak height [44]: 3330 and 2570
- Net peak height (AVG) [44]: 2950
- Signal/noise of test line [45]: 437
- Net peak height [46]: 496 and 539
- Net peak height (AVG) [46]: 517
- Peak Intensity [47]: 2.8 and 2.7
- Peak Intensity(avg) [47]: 2.78
- fluorescence intensity (AVG) [48]: 6550
- Net peak height [49]: 1630 and 1700
- Net peak height (AVG) [49]: 1670
- Net peak height [50]: 7200 and 6970
- Net peak height (AVG) [50]: 7090
- signal/noise [51]: 11.2
